Experimental data as given in PMC10150588 (Journal of chemical information and modeling, 2023).
“And” between values parts separate entries of the source, which are not always exact repeats. Equal entries are not always repeated. Where two headings read alike, the source gives them in different places. No end group written: not given here.

Legend:
[1] = biological target: NSD3 short peptide (Homo sapiens) (UniProt Q9BZ95); conditions: cited from earlier work
[2] = biological target: BRG1 peptide (Homo sapiens) (UniProt P51532); conditions: cited from earlier work
[3] = biological target: CHD4 peptide (Homo sapiens) (UniProt Q14839); conditions: cited from earlier work
CHD4 peptide (Homo sapiens), sequence (Q14839 whole entry): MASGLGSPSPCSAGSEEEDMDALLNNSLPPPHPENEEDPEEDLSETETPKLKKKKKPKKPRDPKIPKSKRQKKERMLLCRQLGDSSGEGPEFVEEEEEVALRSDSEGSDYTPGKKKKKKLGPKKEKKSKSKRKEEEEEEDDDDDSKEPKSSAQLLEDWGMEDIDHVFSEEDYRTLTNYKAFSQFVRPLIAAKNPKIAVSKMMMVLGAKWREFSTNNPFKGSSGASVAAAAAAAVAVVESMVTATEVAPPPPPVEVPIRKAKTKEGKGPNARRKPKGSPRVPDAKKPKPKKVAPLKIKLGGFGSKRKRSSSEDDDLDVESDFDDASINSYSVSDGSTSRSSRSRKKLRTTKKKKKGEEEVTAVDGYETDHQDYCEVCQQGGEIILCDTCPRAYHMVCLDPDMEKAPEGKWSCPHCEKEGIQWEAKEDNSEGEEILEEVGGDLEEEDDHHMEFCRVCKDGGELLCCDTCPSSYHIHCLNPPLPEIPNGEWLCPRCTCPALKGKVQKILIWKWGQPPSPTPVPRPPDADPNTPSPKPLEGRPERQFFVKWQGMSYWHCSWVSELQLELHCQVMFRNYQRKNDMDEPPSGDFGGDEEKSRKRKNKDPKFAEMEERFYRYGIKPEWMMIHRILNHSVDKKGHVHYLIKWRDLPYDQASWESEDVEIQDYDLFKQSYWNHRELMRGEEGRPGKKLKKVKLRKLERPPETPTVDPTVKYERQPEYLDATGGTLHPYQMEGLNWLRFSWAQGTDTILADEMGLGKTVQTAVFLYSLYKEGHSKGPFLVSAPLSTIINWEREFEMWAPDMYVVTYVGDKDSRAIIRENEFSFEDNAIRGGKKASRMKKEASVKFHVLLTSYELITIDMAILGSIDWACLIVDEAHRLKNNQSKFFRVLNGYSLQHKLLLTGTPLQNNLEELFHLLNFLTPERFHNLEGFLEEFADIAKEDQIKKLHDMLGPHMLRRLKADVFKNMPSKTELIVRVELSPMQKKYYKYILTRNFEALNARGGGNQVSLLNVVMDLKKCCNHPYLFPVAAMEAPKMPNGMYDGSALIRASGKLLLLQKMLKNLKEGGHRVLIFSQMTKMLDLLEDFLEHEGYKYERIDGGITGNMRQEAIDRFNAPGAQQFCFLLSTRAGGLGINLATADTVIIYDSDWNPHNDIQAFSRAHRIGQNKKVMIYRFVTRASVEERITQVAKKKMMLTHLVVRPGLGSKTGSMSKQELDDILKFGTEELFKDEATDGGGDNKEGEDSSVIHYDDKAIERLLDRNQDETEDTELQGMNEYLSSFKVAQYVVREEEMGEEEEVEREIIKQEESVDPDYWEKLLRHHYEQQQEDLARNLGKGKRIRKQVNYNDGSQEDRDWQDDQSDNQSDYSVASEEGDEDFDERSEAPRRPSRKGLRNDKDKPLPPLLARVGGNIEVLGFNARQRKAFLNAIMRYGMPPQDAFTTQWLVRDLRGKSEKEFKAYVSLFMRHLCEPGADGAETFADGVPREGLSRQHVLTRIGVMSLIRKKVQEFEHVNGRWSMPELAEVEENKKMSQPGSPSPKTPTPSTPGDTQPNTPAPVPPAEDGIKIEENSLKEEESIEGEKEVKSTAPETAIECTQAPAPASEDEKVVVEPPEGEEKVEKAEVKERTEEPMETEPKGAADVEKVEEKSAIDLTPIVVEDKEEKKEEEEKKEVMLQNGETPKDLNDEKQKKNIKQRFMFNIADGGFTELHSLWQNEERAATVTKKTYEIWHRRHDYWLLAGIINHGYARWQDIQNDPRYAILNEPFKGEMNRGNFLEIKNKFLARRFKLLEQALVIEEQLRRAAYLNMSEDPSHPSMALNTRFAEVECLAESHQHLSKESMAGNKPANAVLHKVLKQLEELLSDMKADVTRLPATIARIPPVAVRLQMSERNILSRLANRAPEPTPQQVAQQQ

[4] = biological target: JMJD6 peptide (Homo sapiens) (UniProt Q6NYC1); conditions: cited from earlier work
[5] = biological target: LANA peptide (Human herpesvirus 8) (UniProt Q9QR71); conditions: cited from earlier work
LANA peptide (Human herpesvirus 8), sequence (Q9QR71 1-23): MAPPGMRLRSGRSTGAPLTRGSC

BRD3 ET [6] = biological target: T1, BRD3 ET (Homo sapiens, UniProt Q15059); conditions: cited from earlier work
T1 sequence (Q15059 554-640): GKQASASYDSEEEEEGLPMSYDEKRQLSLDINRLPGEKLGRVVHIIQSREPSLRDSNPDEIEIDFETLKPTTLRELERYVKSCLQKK

BRD3 ET [7] = biological target: T1, BRD3 ET; conditions: cited from earlier work; remark: listed apart in the source
BRD4 ET (Homo sapiens) [8] = biological target: BRD4 ET (Homo sapiens) (UniProt O60885); conditions: cited from earlier work
BRD3-ET = conditions: cited from earlier work
BRD4-ET = conditions: cited from earlier work
BRD4 ET (Homo sapiens) [9] = biological target: BRD4 ET (Homo sapiens) (UniProt O60885); conditions: cited from earlier work; remark: listed apart in the source
BRD3 ET [10] = biological target: T1, BRD3 ET; test: Isothermal titration calorimetry, peptide binding to BRD3 ET; design: species or system murine; conditions: ITC, 20 mM Tris, 150 mM NaCl, 1 mM TCEP

BRD3 ET (from UniProt Q15059), sequence (Q15059 562-644): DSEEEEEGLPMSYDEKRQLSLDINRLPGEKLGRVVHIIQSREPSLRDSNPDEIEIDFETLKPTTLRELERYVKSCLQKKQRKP
NSD3 short peptide (Homo sapiens), sequence (Q9BZ95 whole entry): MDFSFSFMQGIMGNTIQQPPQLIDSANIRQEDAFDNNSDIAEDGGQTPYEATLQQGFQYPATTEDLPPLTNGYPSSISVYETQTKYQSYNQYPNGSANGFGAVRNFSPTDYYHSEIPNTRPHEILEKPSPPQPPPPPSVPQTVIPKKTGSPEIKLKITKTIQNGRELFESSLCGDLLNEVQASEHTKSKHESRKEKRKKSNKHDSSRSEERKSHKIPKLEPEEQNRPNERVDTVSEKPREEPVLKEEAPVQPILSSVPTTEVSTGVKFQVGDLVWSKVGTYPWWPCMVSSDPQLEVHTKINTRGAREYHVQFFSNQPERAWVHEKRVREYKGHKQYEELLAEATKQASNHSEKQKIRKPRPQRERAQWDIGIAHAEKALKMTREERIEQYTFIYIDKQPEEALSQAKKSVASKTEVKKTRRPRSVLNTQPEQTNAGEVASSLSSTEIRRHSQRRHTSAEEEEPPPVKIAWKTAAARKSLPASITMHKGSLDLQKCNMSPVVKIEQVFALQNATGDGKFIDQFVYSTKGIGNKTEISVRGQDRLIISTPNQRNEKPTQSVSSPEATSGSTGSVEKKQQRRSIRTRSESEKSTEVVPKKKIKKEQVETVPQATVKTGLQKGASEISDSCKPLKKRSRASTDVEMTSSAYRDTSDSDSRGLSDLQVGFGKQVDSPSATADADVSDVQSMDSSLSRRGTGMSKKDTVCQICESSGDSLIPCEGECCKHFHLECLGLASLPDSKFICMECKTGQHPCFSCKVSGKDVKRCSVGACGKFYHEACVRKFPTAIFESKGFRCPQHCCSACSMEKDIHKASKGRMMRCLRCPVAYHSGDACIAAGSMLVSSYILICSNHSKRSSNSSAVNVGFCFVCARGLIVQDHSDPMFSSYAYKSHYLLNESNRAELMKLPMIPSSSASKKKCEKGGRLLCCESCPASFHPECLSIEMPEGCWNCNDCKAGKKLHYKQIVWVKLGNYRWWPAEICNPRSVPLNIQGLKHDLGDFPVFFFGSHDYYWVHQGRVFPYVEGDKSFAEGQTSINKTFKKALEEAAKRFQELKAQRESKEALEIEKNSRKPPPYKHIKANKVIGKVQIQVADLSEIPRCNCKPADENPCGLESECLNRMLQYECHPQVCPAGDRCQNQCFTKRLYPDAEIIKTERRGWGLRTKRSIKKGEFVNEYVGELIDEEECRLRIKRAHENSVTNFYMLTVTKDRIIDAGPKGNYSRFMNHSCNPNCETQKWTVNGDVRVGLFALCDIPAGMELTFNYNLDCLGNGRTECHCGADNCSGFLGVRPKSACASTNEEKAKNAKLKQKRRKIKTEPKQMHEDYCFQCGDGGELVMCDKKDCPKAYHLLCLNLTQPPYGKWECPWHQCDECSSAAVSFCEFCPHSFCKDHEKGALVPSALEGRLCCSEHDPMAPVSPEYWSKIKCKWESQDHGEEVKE

Question: Which results are given for BRD3 ET (from UniProt Q15059)?
Answer: Kd [1]: 950 µM; Kd [2]: 7 µM; Kd [3]: 95 µM

Question: With BRD4 ET (from UniProt O60885) as the substance, how does the Kd [4] read?
Answer: 160 µM

Question: What about the Kd [5] of the same substance?
Answer: 635 µM

Question: With BRG1 1591-1602 (from UniProt P51532) as the substance, how does the Kd (BRD3 ET [6]) read?
Answer: 7 µM

Question: With CHD4 290-301 (from UniProt Q14839) as the substance, how does the Kd (BRD3 ET [7]) read?
Answer: 95 µM

Question: With JMJD6 84-96 (from UniProt Q6NYC1) as the substance, how does the Kd (BRD4 ET (Homo sapiens) [8]) read?
Answer: 160 µM

Question: Which Kd (BRD3-ET; BRD3-ET) does the source give for KVAPLKIKLGGF [CHD4] here?
Answer: ~95 µM and < 100 µM

Question: What does the source list for KWTLERLKRKYRN [JMJD6]?
Answer: relative binding strength (BRD4-ET; BRD4-ET binding of JMJD6 compared with NSD3 and LANA binding BRD3-ET): reported to bind BRD4-ET more strongly than NSD3 and LANA bind BRD3-ET; Kd (BRD4-ET; BRD4-ET:JMJD6, 20 °C): ~160 µM; relative binding to BRD3-ET vs BRD4-ET (BRD3-ET; BRD3-ET compared with BRD4-ET): weak or no binding

Question: Which Kd (BRD4 ET (Homo sapiens) [9]) does the source give for LANA 1098-1116 (from UniProt Q9QR71) here?
Answer: 635 µM

Question: For NLQSSIVKFKKPLPLTQPG [LANA], which Kd (BRD4-ET; BRD4-ET:LANA) is on record?
Answer: ~635 µM

Question: With SRLTWRVQRSQNPLKIRLTREAP [TP] as the substance, how does the Kd (BRD3 ET [10]; pH 7.5, 10 °C) read?
Answer: 13 ± 10 nM

Question: What about the Kd (BRD3 ET [10]; pH 7.5, 25 °C) of the same substance?
Answer: 90 ± 10 nM
